# Measured values reported in PMC8844826.
# Columns and labels:
# [1] = target: full length PSD-95 (FL-PSD-95, 1-724) (human) (UniProt P78352); experiment: fluorescence polarisation; competition at pH 9.4: PSD-95 (150 nM) and fluorescent tracer, increasing NA-1; apparent
# [2] = target: full length PSD-95 (FL-PSD-95, 1-724) (human) (UniProt P78352); experiment: fluorescence polarisation; competition at pH 8.4: PSD-95 (150 nM) and fluorescent tracer, increasing NA-1; apparent
# [3] = target: full length PSD-95 (FL-PSD-95, 1-724) (human) (UniProt P78352); experiment: fluorescence polarisation; competition at pH 7.4: PSD-95 (150 nM) and fluorescent tracer, increasing NA-1; apparent
# [4] = target: full length PSD-95 (FL-PSD-95, 1-724) (human) (UniProt P78352); experiment: fluorescence polarisation; competition at pH 6.4: PSD-95 (150 nM) and fluorescent tracer, increasing NA-1; apparent
# Sequence of full length PSD-95 (FL-PSD-95, 1-724) (human) (P78352 whole entry): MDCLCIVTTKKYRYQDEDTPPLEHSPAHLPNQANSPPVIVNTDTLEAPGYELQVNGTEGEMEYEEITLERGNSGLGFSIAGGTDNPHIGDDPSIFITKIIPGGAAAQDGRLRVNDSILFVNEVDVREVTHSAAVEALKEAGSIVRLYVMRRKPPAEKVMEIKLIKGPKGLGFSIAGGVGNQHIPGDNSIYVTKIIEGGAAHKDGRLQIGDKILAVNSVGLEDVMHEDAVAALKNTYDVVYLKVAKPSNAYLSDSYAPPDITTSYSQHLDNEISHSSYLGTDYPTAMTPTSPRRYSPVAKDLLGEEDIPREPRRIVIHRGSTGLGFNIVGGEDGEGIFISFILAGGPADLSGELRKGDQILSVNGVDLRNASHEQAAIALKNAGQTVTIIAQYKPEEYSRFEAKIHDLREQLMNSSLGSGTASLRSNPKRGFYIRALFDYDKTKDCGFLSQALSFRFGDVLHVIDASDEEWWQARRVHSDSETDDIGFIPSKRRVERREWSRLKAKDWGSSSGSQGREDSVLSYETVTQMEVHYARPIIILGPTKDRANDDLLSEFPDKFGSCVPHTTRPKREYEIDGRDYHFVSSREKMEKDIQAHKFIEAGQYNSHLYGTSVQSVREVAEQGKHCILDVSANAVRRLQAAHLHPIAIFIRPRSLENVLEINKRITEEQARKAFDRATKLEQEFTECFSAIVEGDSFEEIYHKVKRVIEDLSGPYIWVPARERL
substance,measurement,setting,value
NA-1 (nerinetide): TAT peptide fused to C-terminal residues of the GluN2B NMDAR subunit,Ki,[1],4.1 µM
same,Ki,[2],2.6 µM
same,Ki,[3],4.5 µM
same,Ki,[4],7.2 µM
